Test [1] has as its target AP C3-convertase (C3bBb) (UniProt P01024). Kind of test: cell-based or functional assay.
The target in test [2] is CP C3-convertase (C4b2a) (UniProt P0C0L4). Kind of test: cell-based or functional assay.

A value given as a limit tells only on which side of the number the result lay.

Chain of CP C3-convertase (C4b2a) (P0C0L4 757-1446 limits assumed, chain 1 of 4): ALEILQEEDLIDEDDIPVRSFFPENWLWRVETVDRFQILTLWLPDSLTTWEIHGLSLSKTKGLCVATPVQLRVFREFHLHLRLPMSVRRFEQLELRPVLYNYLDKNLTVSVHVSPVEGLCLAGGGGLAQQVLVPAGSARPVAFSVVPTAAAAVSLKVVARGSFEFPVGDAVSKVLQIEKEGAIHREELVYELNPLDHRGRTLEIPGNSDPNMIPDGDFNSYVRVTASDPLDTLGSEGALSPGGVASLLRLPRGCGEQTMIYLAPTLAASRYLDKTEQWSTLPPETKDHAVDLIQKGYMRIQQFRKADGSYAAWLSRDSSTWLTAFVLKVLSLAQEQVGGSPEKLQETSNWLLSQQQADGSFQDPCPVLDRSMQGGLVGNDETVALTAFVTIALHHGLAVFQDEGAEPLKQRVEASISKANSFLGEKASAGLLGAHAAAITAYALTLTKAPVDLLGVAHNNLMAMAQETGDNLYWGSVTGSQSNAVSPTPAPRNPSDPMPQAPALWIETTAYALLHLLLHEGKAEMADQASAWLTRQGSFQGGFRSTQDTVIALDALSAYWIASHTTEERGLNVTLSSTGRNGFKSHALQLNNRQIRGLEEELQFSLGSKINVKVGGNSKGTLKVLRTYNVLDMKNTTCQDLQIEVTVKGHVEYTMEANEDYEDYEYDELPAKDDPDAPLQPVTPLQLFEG
Chain of CP C3-convertase (C4b2a) (P0C0L4 20-675 limits assumed, chain 2 of 4): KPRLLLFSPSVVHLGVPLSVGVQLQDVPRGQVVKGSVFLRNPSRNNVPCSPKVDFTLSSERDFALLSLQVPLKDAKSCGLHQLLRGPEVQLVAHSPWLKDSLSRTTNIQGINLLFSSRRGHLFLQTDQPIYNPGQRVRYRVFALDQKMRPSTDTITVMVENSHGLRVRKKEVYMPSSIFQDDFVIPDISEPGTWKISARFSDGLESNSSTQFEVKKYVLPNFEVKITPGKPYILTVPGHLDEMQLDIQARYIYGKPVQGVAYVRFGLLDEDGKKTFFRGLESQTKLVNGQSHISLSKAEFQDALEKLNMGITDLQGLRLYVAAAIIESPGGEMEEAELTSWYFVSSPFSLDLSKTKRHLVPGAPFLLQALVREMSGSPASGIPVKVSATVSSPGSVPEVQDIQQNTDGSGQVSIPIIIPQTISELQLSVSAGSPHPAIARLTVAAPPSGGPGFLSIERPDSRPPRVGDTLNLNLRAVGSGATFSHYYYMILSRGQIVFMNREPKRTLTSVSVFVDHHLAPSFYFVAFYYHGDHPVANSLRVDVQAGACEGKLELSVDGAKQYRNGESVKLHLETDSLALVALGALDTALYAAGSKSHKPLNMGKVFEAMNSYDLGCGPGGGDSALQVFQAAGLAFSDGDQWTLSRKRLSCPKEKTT
Chain of CP C3-convertase (C4b2a) (P0C0L4 1454-1744 limits assumed, chain 3 of 4): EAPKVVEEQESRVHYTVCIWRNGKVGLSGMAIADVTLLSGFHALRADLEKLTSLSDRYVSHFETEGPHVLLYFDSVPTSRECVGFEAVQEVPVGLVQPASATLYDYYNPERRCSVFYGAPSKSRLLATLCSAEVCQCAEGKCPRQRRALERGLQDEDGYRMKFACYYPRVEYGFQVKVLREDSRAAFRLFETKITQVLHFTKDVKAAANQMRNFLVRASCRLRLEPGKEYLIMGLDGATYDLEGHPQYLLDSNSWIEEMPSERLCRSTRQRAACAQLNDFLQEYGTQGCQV
Chain of CP C3-convertase (C4b2a) (P06681 244-752 limits assumed, chain 4 of 4, further chain): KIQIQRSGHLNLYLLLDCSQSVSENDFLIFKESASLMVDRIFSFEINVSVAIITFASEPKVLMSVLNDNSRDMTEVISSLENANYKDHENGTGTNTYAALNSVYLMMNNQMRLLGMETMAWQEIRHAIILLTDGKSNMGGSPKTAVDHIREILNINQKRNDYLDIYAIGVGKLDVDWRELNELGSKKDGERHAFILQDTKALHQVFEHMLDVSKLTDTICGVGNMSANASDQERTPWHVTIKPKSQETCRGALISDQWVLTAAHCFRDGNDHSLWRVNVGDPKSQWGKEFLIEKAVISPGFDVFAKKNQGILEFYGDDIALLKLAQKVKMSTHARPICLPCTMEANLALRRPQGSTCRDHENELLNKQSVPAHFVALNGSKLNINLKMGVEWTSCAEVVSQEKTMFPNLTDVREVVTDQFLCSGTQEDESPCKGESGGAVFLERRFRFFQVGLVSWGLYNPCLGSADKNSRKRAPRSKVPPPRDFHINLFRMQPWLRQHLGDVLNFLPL
Chain of AP C3-convertase (C3bBb) (P01024 23-667 limits assumed, chain 1 of 3): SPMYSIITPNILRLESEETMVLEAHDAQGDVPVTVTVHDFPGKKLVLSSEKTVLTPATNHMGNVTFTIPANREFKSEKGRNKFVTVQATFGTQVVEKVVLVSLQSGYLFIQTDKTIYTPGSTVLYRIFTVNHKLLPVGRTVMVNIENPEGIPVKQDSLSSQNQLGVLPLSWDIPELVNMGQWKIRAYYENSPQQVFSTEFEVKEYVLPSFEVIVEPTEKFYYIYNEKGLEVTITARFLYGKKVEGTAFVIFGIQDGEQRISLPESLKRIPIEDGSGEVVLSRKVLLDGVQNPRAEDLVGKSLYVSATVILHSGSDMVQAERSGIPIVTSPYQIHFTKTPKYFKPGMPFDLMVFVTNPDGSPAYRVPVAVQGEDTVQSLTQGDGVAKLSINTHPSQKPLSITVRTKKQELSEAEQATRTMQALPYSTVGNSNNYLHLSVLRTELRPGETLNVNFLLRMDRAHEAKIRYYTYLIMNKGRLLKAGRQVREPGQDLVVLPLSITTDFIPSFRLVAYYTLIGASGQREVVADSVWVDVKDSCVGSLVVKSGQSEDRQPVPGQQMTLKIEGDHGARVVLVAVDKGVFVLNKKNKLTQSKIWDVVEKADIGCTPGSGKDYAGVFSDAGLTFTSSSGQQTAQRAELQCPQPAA
Chain of AP C3-convertase (C3bBb) (P01024 749-1663 limits assumed, chain 2 of 3): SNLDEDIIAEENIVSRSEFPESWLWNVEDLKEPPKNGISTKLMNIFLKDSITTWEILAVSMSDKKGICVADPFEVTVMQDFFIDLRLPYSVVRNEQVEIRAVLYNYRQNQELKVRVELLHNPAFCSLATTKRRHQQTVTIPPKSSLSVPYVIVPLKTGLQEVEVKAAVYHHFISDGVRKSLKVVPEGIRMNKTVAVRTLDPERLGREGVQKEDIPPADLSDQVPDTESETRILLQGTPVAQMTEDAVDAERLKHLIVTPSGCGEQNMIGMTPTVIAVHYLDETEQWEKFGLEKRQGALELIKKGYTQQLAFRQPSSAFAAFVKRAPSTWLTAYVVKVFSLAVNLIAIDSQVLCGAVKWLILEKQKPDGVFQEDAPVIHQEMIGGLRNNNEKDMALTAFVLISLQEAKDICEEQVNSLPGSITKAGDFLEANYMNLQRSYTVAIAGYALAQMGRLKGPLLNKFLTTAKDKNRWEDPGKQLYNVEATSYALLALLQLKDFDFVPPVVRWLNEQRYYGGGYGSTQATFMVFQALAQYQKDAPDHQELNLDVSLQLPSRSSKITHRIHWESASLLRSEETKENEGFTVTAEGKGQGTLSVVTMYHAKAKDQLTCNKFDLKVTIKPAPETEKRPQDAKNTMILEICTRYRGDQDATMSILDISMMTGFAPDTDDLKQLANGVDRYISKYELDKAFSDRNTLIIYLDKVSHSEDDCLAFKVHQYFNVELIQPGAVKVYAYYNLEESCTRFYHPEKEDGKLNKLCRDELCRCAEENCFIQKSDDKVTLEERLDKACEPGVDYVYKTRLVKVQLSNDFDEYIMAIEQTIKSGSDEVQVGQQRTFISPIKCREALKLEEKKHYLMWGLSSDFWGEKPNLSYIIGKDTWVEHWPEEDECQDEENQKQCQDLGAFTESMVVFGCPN
Chain of AP C3-convertase (C3bBb) (P00751 260-764 limits assumed, chain 3 of 3, further chain): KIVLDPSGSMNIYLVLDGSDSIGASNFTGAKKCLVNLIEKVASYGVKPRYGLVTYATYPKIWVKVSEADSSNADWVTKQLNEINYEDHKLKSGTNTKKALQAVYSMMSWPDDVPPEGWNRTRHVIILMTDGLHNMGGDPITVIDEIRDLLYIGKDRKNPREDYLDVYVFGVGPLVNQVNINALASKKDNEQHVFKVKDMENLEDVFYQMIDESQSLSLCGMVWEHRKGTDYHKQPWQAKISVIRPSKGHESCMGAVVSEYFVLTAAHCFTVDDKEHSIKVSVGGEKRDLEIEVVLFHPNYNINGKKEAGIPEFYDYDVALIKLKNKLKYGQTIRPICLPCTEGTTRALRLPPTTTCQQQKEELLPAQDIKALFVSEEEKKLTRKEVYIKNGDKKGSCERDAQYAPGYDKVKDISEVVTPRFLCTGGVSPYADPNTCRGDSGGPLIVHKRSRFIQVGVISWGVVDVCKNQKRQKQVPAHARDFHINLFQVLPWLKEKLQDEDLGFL
Chain of D2D3 (DAF deletion mutant D2-D3) (P08174 98-224 limits assumed, stated change not applied): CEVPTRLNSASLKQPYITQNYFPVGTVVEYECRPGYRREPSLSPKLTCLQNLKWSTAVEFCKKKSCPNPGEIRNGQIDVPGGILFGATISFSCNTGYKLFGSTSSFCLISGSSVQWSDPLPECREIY

Regarding D2D3D4M4 (DAF-MCP chimera), in test [1], the AP-DAA IC50 was 0.0056 µM; the AP-DAA, fold reduction compared to DAF was 10 fold; the Relative AP-DAA came to 0.4. Further, in test [2], the CP-DAA IC50 worked out at 5.7 µM and the Relative CP-DAA was found to be 0.4.

As for “D2D3 (DAF deletion mutant D2-D3) (from UniProt P08174 98-224)”, in test [1], the AP-DAA IC50 was more than 0.01 µM and the Relative AP-DAA is less than 0.2. Also, in test [2], the CP-DAA IC50 was 10.9 µM and the Relative CP-DAA was less than 0.3.

The record behind these values is US20220195012A1.
